Like-named read-outs stand apart in the source and are kept apart here.
Tests used:
ZBP1 KH3-KH4 (ZBP1KH34) [1] = target: T1, ZBP1 KH3-KH4 (ZBP1KH34) (Gallus gallus, UniProt O42254 404-561); assay: EMSA
ZBP1 KH3-KH4 (ZBP1KH34) [2] = target: T1, ZBP1 KH3-KH4 (ZBP1KH34); assay: EMSA; remark: listed apart in the source

T1 sequence (O42254 404-561): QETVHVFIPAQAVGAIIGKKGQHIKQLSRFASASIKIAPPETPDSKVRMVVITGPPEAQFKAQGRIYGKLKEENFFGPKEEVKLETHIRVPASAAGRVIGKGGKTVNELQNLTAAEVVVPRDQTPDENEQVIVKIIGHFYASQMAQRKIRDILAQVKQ

Row | Binder | binding result (ZBP1 KH3-KH4 (ZBP1KH34) [1]) | binding result (ZBP1 KH3-KH4 (ZBP1KH34) [2])
1 | ACCGGACUGUUACCAACACCCACACCCC (ssRNA, m6A at position 6) [B oligonucleotide: zipcode m6A site 1202 (GGm6ACU)] | binds | –
2 | ACCGGACUGUUACCAACACCCACACCCC (ssRNA) [A oligonucleotide: chicken beta-actin zipcode unmodified] | – | binds

— paper PMC10187669
